# Experimental data taken from patent US8329653 (BUCK INSTITUTE FOR AGE RESEARCH, dated 2012).
# Key:
# [1] = biological target: T1, endogenous mouse netrin-1 (E16.5 embryonic cortex) (mouse, UniProt O09118 25-604); assay: co-immunoprecipitation of endogenous proteins from E16.5 mouse cortex
# T1 construct: also called mNet1
# [2] = biological target: T2, endogenous mouse APP (embryonic cortex) (mouse, UniProt P12023 18-770); assay: as above
# T2 construct: whole, on cells; also called endogenous APP
# [3] = biological target: T3, Human Net 1-FlagM2 (Apotech), recombinant netrin-1 (human, UniProt O95631 25-604); assay: ELISA, Aβ1-17 coated at 0.07 µg/ml, various netrin-1 concentrations
# T3 construct: also called recombinant netrin-1 (Apotech Corp.); not shown: FlagM2 tag
# Protocol: An anti-mouse antibody coupled to HRP (Jackson ImmunoResearch, Inc) was added at a concentration of 0.8 μg/ml for 1 hour at 37° C. Colorimetric intensity was measured at a wavelength of 490 nm using a Victor station (Wallac).
binding result [1],Binder,further results
no binding,"endogenous mouse p75^ntr (E16.5 embryonic cortex) (receptor, UniProt Q9Z0W1 32-427, looked up, whole, on cells; also called P75-NGFR) KETCSTGMYTHSGECCKACNLGEGVAQPCGANQTVCEPCLDSVTFSDVVSATEPCKPCTECLGLQSMSAPCVEADDAVCRCSYGYYQDEETGRCEACSVCGVGSGLVFSCQDKQNTVCEECPEGTYSDEANHVDPCLPCTVCEDTERQLRECTPWADAECEEIPGRWITRSTPPEGSDVTTPSTQEPEAPPERDLIASTVADTVTTVMGSSQPVVTRGTADNLIPVYCSILAAVVVGLVAYIAFKRWNSCKQNKQGANSRPVNQTPPPEGEKLHSDSGISVDSQSLHDQQTHTQTASGQALKGDGNLYSSLPLTKREEVEKLLNGDTWRHLAGELGYQPEHIDSFTHEACPVRALLASWGAQDSATLDALLAALRRIQRADIVESLCSESTATSPV",–
–,"endogenous mouse bFGF (E16.5 embryonic cortex) (ligand, UniProt P15655 10-154, looked up) PALPEDGGAAFPPGHFKDPKRLYCKNGGFFLRIHPDGRVDGVREKSDPHVKLQLQAEERGVVSIKGVCANRYLAMKEDGRLLASKCVTEECFFFERLESNNYNTYRSRKYSSWYVALKRTGQYKLGSKTGPGQKAILFLPMSAKS",binding result [2]: no binding
–,"DAEFRHDSGYEVHHQKL (peptide, UniProt P05067 672-688, looked up, domain: Aβ1-17) [Aβ1-17 (the 17 first amino acids of Aβ)]",Kd [3]: 30 nM
no binding,"endogenous mouse TrkC (E16.5 embryonic cortex) (receptor, whole, on cells) not shown",–
